Data set [1] has as its system desired target antigen. Briefly: Direct Bind ELISA of parent antibodies and DVD-Ig constructs. In kind it is binding. Particulars: C-terminal variable domain NGF, read-out: Direct Bind ELISA C-terminal VD EC50. How it is done: Enzyme Linked Immunosorbent Assays to screen for antibodies that bind a desired target antigen were performed as follows. […] Plates were washed four times with PBS containing 0.02% Tween 20. Plates were blocked by the addition of 300 μL/well blocking solution (non-fat dry milk powder, various retail suppliers, diluted to 2% in PBS) for ½ hour at room temperature. Plates were washed four times after blocking with PBS containing 0.02% Tween 20.
Wells were washed four times with PBS containing 0.02% Tween 20.
One hundred microliters of antibody or DVD-Ig preparations diluted in blocking solution as described above was added to the desired target antigen plate or desired target antigen/FC fusion plate or the anti-polyHistidine antibody/His tagged desired target antigen plate prepared as described above and incubated for 1 hour at room temperature.
Plates were washed 4 times with PBS containing 0.02% Tween 20.
One hundred microliters of enhanced TMB solution (Neogen Corp. #308177, K Blue, Lexington, Ky.) was added to each well and incubated for 10 minutes at room temperature. The reaction was stopped by the addition of 50 μL 1N sulphuric acid. Plates were read spectrophotometrically at a wavelength of 450 nm.
In general terms: ELISA stands for enzyme-linked immunosorbent assay.

The subject of data set [2] is PGE2 / human EP4 receptor in HEK293 Gα16 cells. Briefly: EP4 bioassay (Ca++ flux, neutralization of PGE2). In kind it is cell-based. Put shortly:
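Ca++ flux (FLIPR) in HEK293 Gα16 cells stably expressing human EP4, loaded with Ca++-sensitive dye for 90 min. PGE2, alone or pre-incubated with anti-PGE2 antibody, DVD-Ig or isotype control, was added in FLIPR buffer (HBSS, 20 mM HEPES, 0.1% BSA, 2.5 mM probenecid). EC50 derived from PGE2 dose-response.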

Data set [3] can be described thus: PGE2-biotinamide ELISA (PGE2 binding). The settings on record: PGE2 VD in N-terminal position, read-out: Direct Bind ELISA N-terminal VD EC50. In short, it runs like this:
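Antibody or DVD-Ig (1 µg/ml) captured on anti-host Fc IgG-coated plates for 1 h at room temperature, then titrated with PGE2-biotinamide serially diluted from 30 nM for 1 h. Binding detected with streptavidin-polyHRP and TMB, absorbance read at 450 nm; EC50 from the titration curve.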

Data set [4] deals with C57.BL/6 mice, carrageenan-induced footpad edema. In words: Carrageenan-induced footpad edema model. In kind it is in vivo, mouse. The settings on record: 10 mg/kg. As to the method:
Carrageenan-Induced Footpad Edema is an acute rodent model of innate immune function. Intradermal (ID) injection of an inflammatory agent causes a rapid influx of neutrophils and fluid edema, which peaks at approximately 4 hours, followed by an influx of macrophages and monocytes, which peaks at approximately 48 hours. C57.BL/6 mice (8-10-week-old, Jackson Laboratories, Bar Harbor, Me.) were injected ID in the rear footpad with 30 μL of either PBS (left) or λ-carrageenen (Sigma Aldrich, St. Louis, Mo.) in PBS (right) at a concentration of 5.0 mg/mL (150 μg/mouse). […] Significant difference for paw thickness was determined by comparing mean paw swelling for each treatment group to vehicle in a Student's two-tailed t-test.
The endpoint measured was the difference in paw swelling (edema) between right and left paws 4 hours after treatment.
For orientation: Carrageenan injected into the paw causes an acute inflammation.

A short description of data set [5]: 3H-PGE2 ELISA (PGE2 binding affinity). How it is done:
Alternatively, prostaglandin binding screen for antibodies or DVD-Ig molecules can be determined using a ^3H-PGE2 ELISA. Plates were coated at 50 μl/well with 5 μg/ml of goat anti-human IgG (Fc) (Thermo Scientific #31170, Hudson, N.H.) or goat anti-mouse IgG (Fc) (Thermo Scientific #31125, Hudson, N.H.) in PBS and incubated overnight at 4° C. The following day plates were flicked and blotted dry. Plates were then blocked with 200 μL/well of Superblock (Thermo Scientific #37515, Hudson, N.H.), for 1 hour at room temperature. Plates were flicked and blotted dry. Monoclonal antibodies were diluted to 0.04 μg/ml in PBST (Abbott Bioresearch Center, Worcester, Mass.)/10% Superblock and 50 uL of each antibody or DVD-Ig was added to each well of the pre-blocked ELISA plate at 2 ng/well and incubated for 1 hour at room temperature. Wells were washed 3 times with PBS+0.1% Tween-20. A serial 3 fold titration of ^3H-PGE2 (Perkin Elmer #NET-428, Waltham, Mass.) was prepared in PBST+10% Superblock. Fifty microliters of the ^3H-PGE2 solution was then added to each well of the plate and incubated for 1 hour at room temperature. Wells were washed 6 times with PBST+10% Superblock and 50 μL of scintillation fluid (Perkin Elmer #6013621, Waltham, Mass.) added to each well. Plates were read using the TopCount reader (Perkin Elmer, Waltham, Mass.) with a 5 minutes count delay. EC50 number was determined using GraphPad Prism 5 (GraphPad Software, La Jolla, Calif.).

The test system of data set [6] is human TNFα transgenic B6.Cg(SJL)-Tg(TNF) N21+ mice. In words: Human TNFα transgenic induced arthritis model. In kind it is in vivo, mouse. Particulars: PGE2 blockade. How it is done:
Human TNFα transgenic B6.Cg(SJL)-Tg(TNF) N21+ mice (40 male and 40 females) (Taconic, Hudson, N.Y.) at 4 weeks age were divided into 10 groups of 8 mice (4 male and 4 females/group). Each week, starting from week 5 until week 12 of age the morphology of the rear ankle joints of the mice were evaluated and scored for signs and symptoms of arthritis. Arthritic scores were assigned as follows. • 0=no arthritis (normal appearance and flexion) • 1=mild arthritis (joint distortion) • 2=moderate arthritis (swelling, joint deformation); and • 3=severe arthritis (ankylosis detected on flexion and severely impaired movement)
Animals were randomized to achieve approximately similar mean arthritic score (MAS) for all groups at week 9 at first signs of symptoms. Animals were then treated i.p. twice a week starting from week 10 of age until week 12 of age. Mice in group 1 served as untreated control were administered PBS.

A short description of data set [7]: Dynamic light scattering. The data set is classed as physicochemical. The settings on record: 2 mg/mL in PBS. How it is done: Samples were centrifuged at 10,000 RPM for 10 minutes before measured on DynaPro-801 Dynamic light scattering system.

Positions count from the first letter of the chain named.

B1: DVD163: DVD-Ig construct listed in Table 4 (antibody)
VH: EVQLVQSGAEVKKPGASVKVSCKASGYTFTKYWLGWVRQAPGQGLEWMGDIYPGYDYTHYNEKFKDRVTLTTDTSTSTAYMELRSLRSDDTAVYYCARSDGSSTYWGQGTLVTVSSASTKGPQVQLQESGPGLVKPSETLSLTCTVSGFSLIGYDLNWIRQPPGKGLEWIGIIWGDGTTDYNSAVKSRVTISKDTSKNQFSLKLSSVTAADTAVYYCARGGYWYATSYYFDYWGQGTLVTVSS
VL: DVLMTQTPLSLPVTPGEPASISCTSSQNIVHSNGNTYLEWYLQKPGQSPQLLIYKVSNRFSGVPDRFSGSGSGTDFTLKISRVEAEDVGVYYCFQVSHVPYTFGGGTKVEIKRTVAAPDIQMTQSPSSLSASVGDRVTITCRASQSISNNLNWYQQKPGKAPKLLIYYTSRFHSGVPSRFSGSGSGTDFTFTISSLQPEDIATYYCQQEHTLPYTFGQGTKLEIKR
By EC50 is commonly meant the concentration that produces a half-maximal response. In the case of B1, the EC50 is greater than 10000 nM in data set [1]; 0.245 nM in data set [2] (PGE2 VD in N-terminal position, EP4 bioassay, Ca++ flux, read-out: N-terminal VD PGE2 Neutralization EC50); 0.71 nM in data set [3].

B2: 2B5-8.0: murine anti-PGE2 antibody clone, VH SEQ ID 82, VL SEQ ID 83 (antibody, V domains shown)
VH: QVQLQQSGPELVRPGSSVKISCKASGYTFTKYWLGWVKQRPGHGLEWIGDIYPGYDYTHYNEKFKDKATLTVDTSSSTAYMQLSSLTSEDSAIYYCARSDGSSTYWGQGTLVTVSA
VL: DVLMTQTPLSLPVSLGDQASISCTSSQNIVHSNGNTYLEWYLQRPGQSPKLLIYKVSNRFSGVPDRFSGSGSGTVFTLKISRVEAEDLGVYYCFQVSHVPYTFGGGTKLEIKR
Broadly, the % Inhibition is the relative decrease from the control value, in per cent. A high value points to strong suppression. Usually IC50 stands for the midpoint of a concentration-inhibition curve. The term Kd denotes the concentration at which binding is half-saturated. As to B2, in data set [4] (IP 18 hours prior to carrageenan, 4 hours), the “maximal inhibition of paw swelling” value is given as 40-50%. In addition, in data set [4] (i.p.), the “% Inhibition” value worked out at 38 ± 4.6%. The “Δ Paw Swelling” value in data set [4] (i.p., 4 hours post carrageenan) is given as 0.529 ± 0.04 mm. In addition, in data set [2] (EP4 assay), the IC50 stood at 0.02 nM. The same molecule registered a Kd in data set [5] of 0.334 nM. For the same molecule, the “effect on disease progression” value in data set [6] is reported as “no significant effect”.

B3: Hu2B5.7: humanized anti-PGE2 antibody, VH SEQ ID 74, VL SEQ ID 75 (antibody, V domains shown)
VH: EVQLVQSGAEVKKPGASVKVSCKASGYTFTKYWLGWVRQAPGQGLEWMGDIYPGYDYTHYNEKFKDRVTLTTDTSTSTAYMELRSLRSDDTAVYYCARSDGSSTYWGQGTLVTVSS
VL: B2 VL with S14T, L15P, D17E, Q18P, R44K, K50Q, V75D, L88V, L109V
The molecule B3 had a hydrodynamic radius in data set [7] of 5.36 nm.

For the origin of these results see patent US8822645B2, “Prostaglandin E2 dual variable domain immunoglobulins and uses thereof” (AbbVie Inc., priority 2008, dated 2014).
